T1: HMGA2 (UniProt P52926 1-109)
T1 sequence: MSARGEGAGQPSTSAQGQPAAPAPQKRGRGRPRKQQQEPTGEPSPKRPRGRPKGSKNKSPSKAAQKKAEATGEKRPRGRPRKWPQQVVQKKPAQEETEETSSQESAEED

B1: recombinant HMGA1b (natural protein, UniProt P17096-2 1-96, looked up)
chain: MSESSSKSSQPLASKQEKDGTEKRGRGRPRKQPPKEPSEVPTPKRPRGRPKGSKNKGAAKTRKTTTTPGRKPRGRPKKLEKEEEEGISQESSEEEQ
notes: HMGA1b, isoform of HMGA1 from alternative splicing
B2: recombinant HMGA1a (natural protein, UniProt P17096-1 1-107, looked up)
chain: MSESSSKSSQPLASKQEKDGTEKRGRGRPRKQPPVSPGTALVGSQKEPSEVPTPKRPRGRPKGSKNKGAAKTRKTTTTPGRKPRGRPKKLEKEEEEGISQESSEEEQ
notes: HMGA1a, isoform of HMGA1 from alternative splicing

Tests used:
HMGA2 = biological target: T1, HMGA2; assay: EMSA; no NPM1; EMSA: 4 pmol HMGA preincubated 10 min at 4°C with GST-NPM1/GST in 25 mM Tris/HCl pH 8, 5 mM GSH (8 uL); then 0.1 pmol DNA for 10 min in 180 mM NaCl, 1 mM MgCl2
HMGA1a [1] = biological target: T2, HMGA1a (UniProt P17096 1-107); assay: as above
recombinant HMGA1a = biological target: B2; assay: pull-down; GST-fused NPM1 forms as bait with recombinant HMGA proteins; bound proteins seen by western blot with anti-HMGA1 and anti-HMGA2 antibodies; conditions: both partners purified
recombinant HMGA1b = biological target: B1; assay: as above; conditions: both partners purified
[2] = biological target: T3, GST-NPM1 1-295 (full length) (UniProt P06748 1-294); assay: as above; conditions: both partners purified
T3 construct: nucleophosmin (NPM1), printed as full length (1-295); Plasmid provided by P.G. Pelicci; pGEX 4T3 GST-NPM1 1-295 is named as the PCR template; also called full-length GST-NPM1; GST-fused NPM1 full length (1-295); source: for EMSA eluted from Glutathione Sepharose 4B
T3 sequence (P06748 whole entry, the tested form may be a part): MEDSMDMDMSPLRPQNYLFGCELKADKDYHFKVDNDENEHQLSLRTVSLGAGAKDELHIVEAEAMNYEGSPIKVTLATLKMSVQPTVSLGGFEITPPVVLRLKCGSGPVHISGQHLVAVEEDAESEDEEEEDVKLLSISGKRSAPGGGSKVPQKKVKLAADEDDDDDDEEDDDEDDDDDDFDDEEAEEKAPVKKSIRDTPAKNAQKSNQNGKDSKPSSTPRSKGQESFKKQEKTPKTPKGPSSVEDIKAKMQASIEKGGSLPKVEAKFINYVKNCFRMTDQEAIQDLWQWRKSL

GST-NPM1 1-259 = biological target: T4, GST-NPM1 1-259 (UniProt P06748 1-259); assay: as above; conditions: both partners purified
T4 construct: nucleophosmin (NPM1), residues 1-259; Plasmid provided by P.G. Pelicci
T4 sequence (P06748 1-259): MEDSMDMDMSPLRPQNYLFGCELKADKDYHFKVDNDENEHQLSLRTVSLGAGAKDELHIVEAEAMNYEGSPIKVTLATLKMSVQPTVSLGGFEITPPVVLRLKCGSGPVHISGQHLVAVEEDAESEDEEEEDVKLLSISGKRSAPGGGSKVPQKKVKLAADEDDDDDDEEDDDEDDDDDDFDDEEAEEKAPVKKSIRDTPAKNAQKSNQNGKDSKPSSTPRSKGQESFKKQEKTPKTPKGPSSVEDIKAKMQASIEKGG

GST-NPM1 1-186 = biological target: T5, GST-NPM1 1-186 (UniProt P06748 1-186); assay: as above; conditions: both partners purified
T5 construct: Plasmid provided by P.G. Pelicci

HMGA1a [3] = biological target: T2, HMGA1a; assay: EMSA; no NPM1; two complexes; EMSA: 4 pmol HMGA preincubated 10 min at 4°C with GST-NPM1/GST in 25 mM Tris/HCl pH 8, 5 mM GSH (8 uL); then 0.1 pmol DNA for 10 min in 180 mM NaCl, 1 mM MgCl2

Row | binding result [2] | binding result (GST-NPM1 1-259) | binding result (GST-NPM1 1-186) | Binder | further results
1 |  |  |  | HCRII (dsDNA) DNA 1: GACACATTAATCTATAATCAAATA DNA 2: TATTTGATTATAGATTAATGTGTC | binding result (HMGA2): binds; binding result (HMGA1a [1]): binds
2 |  |  |  | GST-NPM1 117-186 (domain or fragment, UniProt P06748 117-186, looked up, also called central portion of NPM1 containing the two acidic clusters (A2 and A3)) VAVEEDAESEDEEEEDVKLLSISGKRSAPGGGSKVPQKKVKLAADEDDDDDDEEDDDEDDDDDDFDDEEA | binding result (recombinant HMGA1a): binds; binding result (recombinant HMGA1b): binds
3 | binds | binds | binds | B1 | 
4 |  |  |  | E3 (dsDNA) DNA 1: AGAAAAACTCCATCTAAAAAAAAAAAAAAAAAAAAAAAAAAACA DNA 2: TGTTTTTTTTTTTTTTTTTTTTTTTTTTTAGATGGAGTTTTTCT | binding result (HMGA1a [3]): binds
5 | binds | binds | binds | B2 | 

Source: paper PMC4339810 (Scientific Reports, 2015)
